# Laboratory results: the supplement of paper PMC9112550, “Optimization of the antimicrobial peptide Bac7 by deep mutational scanning” (BMC Biology, 2022)
# Test system: Escherichia coli TOP10
# Experiment: shrunken log2 fold change of peptide-encoding DNA abundance (4.5 h post-induction vs induction); higher = less antimicrobial activity (less host growth inhibition)
# Details: time post-induction: 4.5 h; library: site-saturation at positions 5, 18, 19, 20
# 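Also: peptides expressed intracellularly from a pBAD plasmid library in pooled LB shake-flask culture, induced with 0.3% L-arabinose, DNA abundance read by NGS, three biological replicates, DESeq2 with apeglm shrinkage.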
row,Sequence,shrunken log2 fold change
1,RRIRTRPPRLPRPRPRPYLAPRP,-0.378
2,RRIRKRPPRLPRPRPRPYINPRP,-0.627
3,RRIRPRPPRLPRPRPRPEQYPRP,-0.226
4,RRIRNRPPRLPRPRPRPDQWPRP,0.0039
5,RRIRHRPPRLPRPRPRPHTTPRP,-0.491
6,RRIRPRPPRLPRPRPRPWLKPRP,-0.371
7,RRIRFRPPRLPRPRPRPMNFPRP,-0.283
8,RRIRARPPRLPRPRPRPHMEPRP,0.157
9,RRIRCRPPRLPRPRPRPAFPPRP,0.16
10,RRIRMRPPRLPRPRPRPYESPRP,0.107
11,RRIRNRPPRLPRPRPRPPKEPRP,-0.166
12,RRIRNRPPRLPRPRPRPRSGPRP,-0.0312
13,RRIRCRPPRLPRPRPRPAHAPRP,0.373
14,RRIRSRPPRLPRPRPRPFDSPRP,-0.0702
15,RRIRMRPPRLPRPRPRPSYAPRP,-0.0187
16,RRIRDRPPRLPRPRPRPPYHPRP,-0.302
17,RRIRWRPPRLPRPRPRPCHAPRP,-0.253
18,RRIRWRPPRLPRPRPRPDLNPRP,0.392
19,RRIRHRPPRLPRPRPRPFMTPRP,-0.188
20,RRIRTRPPRLPRPRPRPCCDPRP,-0.151
21,RRIRTRPPRLPRPRPRPENTPRP,-0.0831
22,RRIRDRPPRLPRPRPRPIEAPRP,0.184
23,RRIRIRPPRLPRPRPRPFWFPRP,-0.684
24,RRIRWRPPRLPRPRPRPALMPRP,0.159
25,RRIRFRPPRLPRPRPRPQDIPRP,-0.0714

row,Sequence,shrunken log2 fold change
1,RRIRRRPPRLPRPRPRPVDTPRP,0.0438
2,RRIRSRPPRLPRPRPRPFWQPRP,0.909
3,RRIRLRPPRLPRPRPRPAAYPRP,-0.15
4,RRIRWRPPRLPRPRPRPETEPRP,0.411
5,RRIRVRPPRLPRPRPRPQVKPRP,-0.016
6,RRIRYRPPRLPRPRPRPTTWPRP,-0.358
7,RRIRVRPPRLPRPRPRPVECPRP,-0.286
8,RRIRFRPPRLPRPRPRPKKPPRP,-0.0169
9,RRIRARPPRLPRPRPRPEDCPRP,0.243
10,RRIRDRPPRLPRPRPRPRTWPRP,0.0224
11,RRIRWRPPRLPRPRPRPEASPRP,0.551
12,RRIRSRPPRLPRPRPRPGFGPRP,0.463
13,RRIRDRPPRLPRPRPRPGTCPRP,-0.0724
14,RRIRERPPRLPRPRPRPTHGPRP,0.0992
15,RRIRYRPPRLPRPRPRPYIEPRP,-0.469
16,RRIRMRPPRLPRPRPRPVDFPRP,0.159
17,RRIRERPPRLPRPRPRPYLMPRP,-0.696
18,RRIRFRPPRLPRPRPRPIVPPRP,0.0537
19,RRIRWRPPRLPRPRPRPGIRPRP,0.29
20,RRIRERPPRLPRPRPRPDEEPRP,-0.142
21,RRIRVRPPRLPRPRPRPHRNPRP,-0.531
22,RRIRVRPPRLPRPRPRPMTDPRP,0.168
23,RRIRQRPPRLPRPRPRPCIAPRP,-0.0382
24,RRIRKRPPRLPRPRPRPGLVPRP,0.783
25,RRIRERPPRLPRPRPRPIMEPRP,-0.465

row,Sequence,shrunken log2 fold change
1,RRIRKRPPRLPRPRPRPDFGPRP,0.052
2,RRIRDRPPRLPRPRPRPPRNPRP,0.27
3,RRIRQRPPRLPRPRPRPKSHPRP,-0.0261
4,RRIRPRPPRLPRPRPRPWAQPRP,-0.00768
5,RRIRLRPPRLPRPRPRPWSVPRP,-0.0834
6,RRIRDRPPRLPRPRPRPDSRPRP,-0.00898
7,RRIRERPPRLPRPRPRPRYAPRP,-0.118
8,RRIRSRPPRLPRPRPRPDKCPRP,-0.173
9,RRIRDRPPRLPRPRPRPFVSPRP,0.00609
10,RRIRCRPPRLPRPRPRPSSFPRP,-0.0694
11,RRIRHRPPRLPRPRPRPHTMPRP,-0.0685
12,RRIRCRPPRLPRPRPRPQQLPRP,-0.054
13,RRIRDRPPRLPRPRPRPGIQPRP,-0.148
14,RRIRGRPPRLPRPRPRPHSCPRP,0.153
15,RRIRLRPPRLPRPRPRPLNLPRP,-0.381
16,RRIRDRPPRLPRPRPRPWPHPRP,-0.00987
17,RRIRKRPPRLPRPRPRPVSPPRP,0.286
18,RRIRWRPPRLPRPRPRPPRTPRP,0.663
19,RRIRPRPPRLPRPRPRPIRWPRP,-0.0338
20,RRIRARPPRLPRPRPRPRLMPRP,0.216
21,RRIRERPPRLPRPRPRPHSRPRP,-0.0374
22,RRIRHRPPRLPRPRPRPGMHPRP,-0.01
23,RRIRSRPPRLPRPRPRPDYQPRP,-0.242
24,RRIRTRPPRLPRPRPRPQSLPRP,-0.0105
25,RRIRPRPPRLPRPRPRPWHSPRP,-0.134
